This passage reports share of motor neurons vulnerable to NGF in culture results from patent US20060275290A1.

For the test, the target named is p75 neurotrophin receptor (p75^NTR) on rat embryonic (E15) spinal cord motor neurons (rat) (UniProt P07174). In words: cell-based or functional assay.
p75 neurotrophin receptor (p75^NTR) on rat embryonic (E15) spinal cord motor neurons (rat), sequence (P07174 30-425): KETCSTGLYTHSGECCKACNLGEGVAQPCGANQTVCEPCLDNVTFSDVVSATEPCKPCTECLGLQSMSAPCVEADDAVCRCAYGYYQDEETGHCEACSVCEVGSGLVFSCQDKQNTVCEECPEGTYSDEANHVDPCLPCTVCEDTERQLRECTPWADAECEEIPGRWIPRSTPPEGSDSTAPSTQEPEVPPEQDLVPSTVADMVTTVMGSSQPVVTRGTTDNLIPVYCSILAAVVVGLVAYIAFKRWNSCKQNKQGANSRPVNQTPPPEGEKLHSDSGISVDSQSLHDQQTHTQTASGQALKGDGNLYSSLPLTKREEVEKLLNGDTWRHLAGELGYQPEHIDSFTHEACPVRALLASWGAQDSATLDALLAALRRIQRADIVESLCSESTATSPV

For the substance “mouse NGF (2.5S), purified, from Harlan (from UniProt P01139 122-241) (ligand)”, the share of motor neurons vulnerable to NGF in culture was determined as 40%.
